Source: paper PMC12133150

Biological target: TET2 (UniProt Q6N021)
Assay: co-IP of transfected HNF4α with TET2
Settings: reference: wild type; sites S313

- binding against the reference: stronger
Substance: HNF4α (from UniProt P41235) S313A
